Earlier results as cited in patent US20170136096A1, “Insulin-Containing Prolonged-Action Preparation” (OBSCHESTVO S OGRANCHENNOJ OTVETCTVENNOSTU "BIOSABTEK", priority 2014, published 2017).

Settings: administered under the skin, injection solution pH 4

## glargine
  duration of flat time-concentration profile: ≤ 24 h
